Target: ZF9-MQ1 (synthetic)
Assay: cell_activity; MYC mRNA down-regulation in A549 and HCC95, 72 h
Conditions: tags: NLS, MQ1 DNA methyltransferase, HA

Sequence of ZF9-MQ1 (synthetic) (chain, as listed by the source): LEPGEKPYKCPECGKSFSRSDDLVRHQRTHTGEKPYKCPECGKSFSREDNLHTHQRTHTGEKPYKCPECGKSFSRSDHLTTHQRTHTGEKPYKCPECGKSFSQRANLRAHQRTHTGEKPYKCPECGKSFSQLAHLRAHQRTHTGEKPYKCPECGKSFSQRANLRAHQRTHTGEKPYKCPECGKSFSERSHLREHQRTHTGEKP

B1: ZF9 target site in MYC promoter (dsDNA)
DNA 1: AGCAAAAGAAAATGGTAGGCG
DNA 2: CGCCTACCATTTTCTTTTGCT
  EC50: 0.08 ug/ml LNP/mRNA
